In the Human Domainome abundance scans (Beltran et al. 2025):
± gives the uncertainty stated by the source.

B1: Tumor protein p73, residues 487 to 549; numbered along this chain, O15350 (parent)
chain: YHADPSLVSFLTGLGCPNCIEYFTSQGLQSIYHLQNLTIEDLGALKIPEQYRMTIWRGLQDLK

Variants of: B1
Test: abundance fitness (aPCA) (normalised: wild type 0, dead -1); higher = more abundant; growth selection in yeast, the domain comes from the species named
Conditions: Homo sapiens

Variant | abundance fitness
C19L | 0.047 ± 0.035
C19M | 0.048 ± 0.036
C19R | -0.941 ± 0.06
C19N | -0.511 ± 0.13
L37S | -0.142 ± 0.044
L37C | -0.089 ± 0.082
D41R | -0.052 ± 0.036
D41M | -0.184 ± 0.075
K46D | -0.138 ± 0.076
K46S | -0.043 ± 0.033
F23T | -0.978 ± 0.13
F23Q | -0.801 ± 0.12
F23V | -0.618 ± 0.049
F23A | -0.971 ± 0.14
F23W | -0.966 ± 0.11
F23N | -0.733 ± 0.15
T24Q | -0.086 ± 0.056
T24W | -0.187 ± 0.037
T24K | -0.013 ± 0.056
I47L | 0.021 ± 0.033
I47A | -0.768 ± 0.075
I47F | -0.263 ± 0.068
Q26S | -0.004 ± 0.032
Q26L | -0.199 ± 0.04

Variant | abundance fitness
Q26M | -0.207 ± 0.044
Y1M | 0.18 ± 0.063
Y1K | -0.153 ± 0.073
G13F | -0.172 ± 0.056
P5A | 0.11 ± 0.063
P5G | 0.134 ± 0.038
P5M | 0.334 ± 0.038
F10A | -0.535 ± 0.069
F10D | -1.06 ± 0.16
Q60W | -0.068 ± 0.035
Q60H | -0.246 ± 0.083
A44P | -0.041 ± 0.062
A44K | 0.057 ± 0.043
L62V | -0.007 ± 0.033
L62I | -0.044 ± 0.07
G43D | -0.085 ± 0.082
G43P | -0.012 ± 0.085
G43K | 0.119 ± 0.047
G43A | -0.102 ± 0.053
I31C | -0.011 ± 0.087
T38K | 0.103 ± 0.071
T38N | -0.11 ± 0.12
T38W | -0.415 ± 0.064
T38H | -0.064 ± 0.068

Variant | abundance fitness
T38Y | -0.409 ± 0.11
Y22R | -0.042 ± 0.029
I55W | -0.923 ± 0.084
I55N | -0.559 ± 0.35
I55S | -0.881 ± 0.1
E21S | -0.003 ± 0.044
E21G | 0.034 ± 0.035
S6D | 0.017 ± 0.14
S6M | -0.031 ± 0.06
S6T | -0.052 ± 0.04
L14H | -0.231 ± 0.082
L14P | -0.949 ± 0.18
L14M | -0.136 ± 0.057
R52G | -0.114 ± 0.046
R52M | -0.146 ± 0.063
R52S | -0.066 ± 0.05
S9I | -0.347 ± 0.13
A3V | 0.137 ± 0.051
A3C | 0.426 ± 0.062
A3S | 0.268 ± 0.054
A3K | 0.358 ± 0.042
A3D | 0.08 ± 0.17
A3Q | 0.311 ± 0.045
A3Y | 0.201 ± 0.072

Variant | abundance fitness
G58A | 0.038 ± 0.045
G58Q | -0.117 ± 0.049
G58F | -0.708 ± 0.17
G58P | -0.433 ± 0.075
P17H | -0.031 ± 0.1
P17A | -0.081 ± 0.043
P17C | -0.08 ± 0.051
L42R | -0.733 ± 0.051
L42N | -0.858 ± 0.13
L42W | 0.072 ± 0.033
L42D | -0.618 ± 0.33
Y51R | -0.137 ± 0.04
Y51K | 0.034 ± 0.1
T12H | 0.01 ± 0.061
T12G | 0.1 ± 0.039
T12F | -0.092 ± 0.078
T12D | 0.236 ± 0.099
L7P | -0.782 ± 0.11
L7K | -0.984 ± 0.16
L7E | -0.512 ± 0.095
L7M | -0.023 ± 0.04
L7H | -0.969 ± 0.24
L7W | -0.847 ± 0.08
K63R | -0.159 ± 0.14

Variant | abundance fitness
K63C | -0.239 ± 0.088
L11F | -0.031 ± 0.14
L11H | -0.806 ± 0.34
Q50I | -0.192 ± 0.15
Q50K | 0.06 ± 0.052
Q50F | -0.23 ± 0.087
Q50V | 0.038 ± 0.035
Q50R | 0.051 ± 0.034
N36I | -0.02 ± 0.073
H33Q | 0.069 ± 0.043
H33L | -0.142 ± 0.037
P48T | -0.247 ± 0.05
I20P | -0.626 ± 0.056
I20Q | -0.082 ± 0.046
I20Y | -0.1 ± 0.038
I20S | -0.049 ± 0.03
V8I | -0.053 ± 0.05
V8M | 0.137 ± 0.04
E40K | -0.141 ± 0.069
E40C | 0.033 ± 0.093
I39M | -0.149 ± 0.27
I39W | -0.231 ± 0.32
L34C | -0.049 ± 0.068
L34E | -0.638 ± 0.062

Variant | abundance fitness
S25L | -0.055 ± 0.034
R57I | -0.24 ± 0.2
R57K | -0.011 ± 0.048
R57C | -0.192 ± 0.12
R57P | -0.625 ± 0.11
E49C | -0.061 ± 0.052
E49Y | -0.181 ± 0.38
E49I | -0.254 ± 0.41
E49H | -0.047 ± 0.051
E49S | -0.056 ± 0.037
G27S | -0.07 ± 0.035
G27P | -0.367 ± 0.065
G27Q | -0.05 ± 0.051
Y32S | 0.113 ± 0.032
Y32R | 0.071 ± 0.03
Y32L | 0.105 ± 0.032
Y32W | -0.001 ± 0.043
Y32V | 0.143 ± 0.039
Q35K | 0.078 ± 0.057
Q35V | 0.055 ± 0.046
Q35C | -0.07 ± 0.083
Q35N | 0.192 ± 0.071
H2C | 0.197 ± 0.096
H2M | 0.301 ± 0.1

Variant | abundance fitness
W56V | -0.048 ± 0.043
W56L | 0.017 ± 0.04
D61V | -0.104 ± 0.045
D61E | -0.068 ± 0.068
D61R | -0.066 ± 0.034
D61F | -0.572 ± 0.25
M53T | 0.009 ± 0.043
L45C | -0.016 ± 0.041
G15K | -0.062 ± 0.058
G15C | -0.226 ± 0.063
G15T | -0.549 ± 0.055
G15H | -0.26 ± 0.13
L59W | -0.213 ± 0.05
L59C | -0.106 ± 0.1
Q29V | -0.016 ± 0.031
Q29N | -0.108 ± 0.21
Q29H | 0.102 ± 0.076
Q29M | 0.03 ± 0.04
T54K | 0.06 ± 0.047
T54L | -0.01 ± 0.051
L28S | -0.079 ± 0.035
L28E | -0.177 ± 0.061
L28H | 0.083 ± 0.13
